Results reported in the supplement of paper PMC11780869.

Tested on: Bacillus subtilis
Assay: cleaved RNA product abundance (RNA/gDNA barcode ratio) relative to median wild-type variant (ratio to wild type); higher = more accumulation of the downstream cleavage product
Details: experiment (reporter, strain, medium): exp 8a: truncated aprE reporter, strain BJT201 with 2% xylose (RNase J1 expressed); cleavage site: glnRA (positions -5 to +31 mutated)
Summary of the method: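 Sequencing of barcodes from gel-selected, reverse-transcribed cleaved RNA and from genomic DNA, with UMI collapsing, yielded a per-construct RNA:gDNA ratio. Scaled to the median construct with the unmutated site, this ratio is the cleaved product abundance. The barcoded reporters (truncated aprE or tetM mRNAs with mutagenized RNase Y cleavage-site windows) were integrated into the B. subtilis chromosome, and cultures grew in LB at 37°C from OD600 0.0003 to 0.3.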

Sequence | cleaved RNA product abundance
CGACATGTCCCGCTTCTTTCATTAATCCGTTATCAACTGTTTTAATATATACATTTACCTTTTAAGAGGAGGAAT | 0.415
CGACATGTCCCGCTTCTTTCATTAATCCGTTATCAACTGTTTTACTATATACATTTACCTTTTAAGAGGAGGAAT | 0.335
CGACATGTCCCGCTTCTTTCATTAATCCGTTATCAACTGTTTTCCTATATACATTTACCTTTTAAGAGGAGGAAT | 0.292
CGACATGTCCCGCTTCTTTCATTAATCCGTTATCAACTGTTTTGATATATACATTTACCTTTTAAGAGGAGGAAT | 0.26
CGACATGTCCCGCTTCTTTCATTAATCCGTTATCAACTGTTTTGCAATATACATTTACCTTTTAAGAGGAGGAAT | 0.266
CGACATGTCCCGCTTCTTTCATTAATCCGTTATCAACTGTTTTGCCATATACATTTACCTTTTAAGAGGAGGAAT | 0.145
CGACATGTCCCGCTTCTTTCATTAATCCGTTATCAACTGTTTTGCGATATACATTTACCTTTTAAGAGGAGGAAT | 0.168
CGACATGTCCCGCTTCTTTCATTAATCCGTTATCAACTGTTTTGCTAAATACATTTACCTTTTAAGAGGAGGAAT | 0.237
CGACATGTCCCGCTTCTTTCATTAATCCGTTATCAACTGTTTTGCTATAAACATTTACCTTTTAAGAGGAGGAAT | 0.182
CGACATGTCCCGCTTCTTTCATTAATCCGTTATCAACTGTTTTGCTATACACATTTACCTTTTAAGAGGAGGAAT | 0.27
CGACATGTCCCGCTTCTTTCATTAATCCGTTATCAACTGTTTTGCTATAGACATTTACCTTTTAAGAGGAGGAAT | 0.206
CGACATGTCCCGCTTCTTTCATTAATCCGTTATCAACTGTTTTGCTATATAAATTTACCTTTTAAGAGGAGGAAT | 0.243
CGACATGTCCCGCTTCTTTCATTAATCCGTTATCAACTGTTTTGCTATATACAATTACCTTTTAAGAGGAGGAAT | 0.276
CGACATGTCCCGCTTCTTTCATTAATCCGTTATCAACTGTTTTGCTATATACAGTTACCTTTTAAGAGGAGGAAT | 0.286
CGACATGTCCCGCTTCTTTCATTAATCCGTTATCAACTGTTTTGCTATATACATATACCTTTTAAGAGGAGGAAT | 0.348
CGACATGTCCCGCTTCTTTCATTAATCCGTTATCAACTGTTTTGCTATATACATTAACCTTTTAAGAGGAGGAAT | 0.283
CGACATGTCCCGCTTCTTTCATTAATCCGTTATCAACTGTTTTGCTATATACATTCACCTTTTAAGAGGAGGAAT | 0.214
CGACATGTCCCGCTTCTTTCATTAATCCGTTATCAACTGTTTTGCTATATACATTGACCTTTTAAGAGGAGGAAT | 0.253
CGACATGTCCCGCTTCTTTCATTAATCCGTTATCAACTGTTTTGCTATATACATTTAACTTTTAAGAGGAGGAAT | 0.291
CGACATGTCCCGCTTCTTTCATTAATCCGTTATCAACTGTTTTGCTATATACATTTACATTTTAAGAGGAGGAAT | 0.366
CGACATGTCCCGCTTCTTTCATTAATCCGTTATCAACTGTTTTGCTATATACATTTACCATTTAAGAGGAGGAAT | 0.269
CGACATGTCCCGCTTCTTTCATTAATCCGTTATCAACTGTTTTGCTATATACATTTACCTTTTAAGAGGAGGAAT | 0.298
CGACATGTCCCGCTTCTTTCATTAATCCGTTATCAACTGTTTTGCTATATACATTTACGTTTTAAGAGGAGGAAT | 0.376
CGACATGTCCCGCTTCTTTCATTAATCCGTTATCAACTGTTTTGCTATATACATTTATCTTTTAAGAGGAGGAAT | 0.347
CGACATGTCCCGCTTCTTTCATTAATCCGTTATCAACTGTTTTGCTATATACATTTCCCTTTTAAGAGGAGGAAT | 0.124

Sequence | cleaved RNA product abundance
CGACATGTCCCGCTTCTTTCATTAATCCGTTATCAACTGTTTTGCTATATACATTTGCCTTTTAAGAGGAGGAAT | 0.223
CGACATGTCCCGCTTCTTTCATTAATCCGTTATCAACTGTTTTGCTATATACATTTTCCTTTTAAGAGGAGGAAT | 0.122
CGACATGTCCCGCTTCTTTCATTAATCCGTTATCAACTGTTTTGCTATATACTTTTACCTTTTAAGAGGAGGAAT | 0.295
CGACATGTCCCGCTTCTTTCATTAATCCGTTATCAACTGTTTTGCTATATAGATTTACCTTTTAAGAGGAGGAAT | 0.418
CGACATGTCCCGCTTCTTTCATTAATCCGTTATCAACTGTTTTGCTATATATATTTACCTTTTAAGAGGAGGAAT | 0.288
CGACATGTCCCGCTTCTTTCATTAATCCGTTATCAACTGTTTTGCTATATCCATTTACCTTTTAAGAGGAGGAAT | 0.136
CGACATGTCCCGCTTCTTTCATTAATCCGTTATCAACTGTTTTGCTATATGCATTTACCTTTTAAGAGGAGGAAT | 0.135
CGACATGTCCCGCTTCTTTCATTAATCCGTTATCAACTGTTTTGCTATATTCATTTACCTTTTAAGAGGAGGAAT | 0.246
CGACATGTCCCGCTTCTTTCATTAATCCGTTATCAACTGTTTTGCTATTTACATTTACCTTTTAAGAGGAGGAAT | 0.111
CGACATGTCCCGCTTCTTTCATTAATCCGTTATCAACTGTTTTGCTGTATACATTTACCTTTTAAGAGGAGGAAT | 0.192
CGACATGTCCCGCTTCTTTCATTAATCCGTTATCAACTGTTTTGCTTTATACATTTACCTTTTAAGAGGAGGAAT | 0.202
CGACATGTCCCGCTTCTTTCATTAATCCGTTATCAACTGTTTTGTTATATACATTTACCTTTTAAGAGGAGGAAT | 0.272
CGACATGTCCCGCTTCTTTCATTAATCCGTTATCAACTGTTTTTCTATATACATTTACCTTTTAAGAGGAGGAAT | 0.393
CGACATGTCCCGCTTCTTTCATTAATCCGTTATCAACTTTTTTGCTATATACATTTACCTTTTAAGAGGAGGAAT | 0.387
CGACATGTCCCGCTTCTTTCATTAATCCGTTATCAAGTGTTTTGCTATATACATTTACCTTTTAAGAGGAGGAAT | 0.202
CGACATGTCCCGCTTCTTTCATTAATCCGTTATCAATTGTTTTGCTATATACATTTACCTTTTAAGAGGAGGAAT | 0.199
CGACATGTCCCGCTTCTTTCATTAATCCGTTATCACCTGTTTTGCTATATACATTTACCTTTTAAGAGGAGGAAT | 0.198
CGACATGTCCCGCTTCTTTCATTAATCCGTTATCATCTGTTTTGCTATATACATTTACCTTTTAAGAGGAGGAAT | 0.267
CGACATGTCCCGCTTCTTTCATTAATCCGTTATCGACTGTTTTGCTATATACATTTACCTTTTAAGAGGAGGAAT | 0.257
CGACATGTCCCGCTTCTTTCATTAATCCGTTATGAACTGTTTTGCTATATACATTTACCTTTTAAGAGGAGGAAT | 0.252
CGACATGTCCCGCTTCTTTCATTAATCCGTTATTAACTGTTTTACTATATACATTTACCTTTTAAGAGGAGGAAT | 0.408
CGACATGTCCCGCTTCTTTCATTAATCCGTTATTAACTGTTTTGCTATATACATTTACCTTTTAAGAGGAGGAAT | 0.337
CGACATGTCCCGCTTCTTTCATTAATCCGTTCACAACTGTTTTGCTATATACATTTACCTTTTAAGAGGAGGAAT | 0.224
CGACATGTCCCGCTTCTTTCATTAATCCGTTCCCAACTGTTTTGCTATATACATTTACCTTTTAAGAGGAGGAAT | 0.392
CGACATGTCCCGCTTCTTTCATTAATCCGTTCGAAACTGTTTTGCTATATACATTTACCTTTTAAGAGGAGGAAT | 0.347
